Experimental findings from patent US20240400614A1, “CLEAVABLE PEPTIDES AND METHODS OF USE THEREOF” (Bright Peak Therapeutics AG, priority 2023, published 2024) are described below.

What all share (type): biochemical
One experiment concerns the target T1, MMP-9 (Homo sapiens, UniProt P14780).
T1 construct: purchased SIGMA PF024
In words: FRET peptide cleavage efficiency with MMP-9 (standard pH 7.5; also pH 6.5).

The next experiment concerns the target T2, MMP-2 (Homo sapiens, UniProt P08253).
T2 construct: purchased SIGMA PF023
T2 sequence (P08253 110-660): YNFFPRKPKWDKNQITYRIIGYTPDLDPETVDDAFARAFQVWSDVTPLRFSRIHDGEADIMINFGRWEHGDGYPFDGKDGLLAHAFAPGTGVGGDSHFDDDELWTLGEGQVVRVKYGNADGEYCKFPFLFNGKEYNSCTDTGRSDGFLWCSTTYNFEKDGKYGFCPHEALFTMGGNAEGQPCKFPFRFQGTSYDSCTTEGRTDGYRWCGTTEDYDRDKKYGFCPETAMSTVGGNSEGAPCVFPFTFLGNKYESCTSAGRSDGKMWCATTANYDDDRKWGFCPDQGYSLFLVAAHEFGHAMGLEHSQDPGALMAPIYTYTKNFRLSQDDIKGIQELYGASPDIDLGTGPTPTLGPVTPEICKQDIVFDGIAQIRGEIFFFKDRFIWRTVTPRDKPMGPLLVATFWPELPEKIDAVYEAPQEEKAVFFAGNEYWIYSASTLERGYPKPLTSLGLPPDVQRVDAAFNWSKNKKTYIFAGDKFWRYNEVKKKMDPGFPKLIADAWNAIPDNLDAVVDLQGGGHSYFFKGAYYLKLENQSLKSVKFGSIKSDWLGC
As to the kind of experiment: FRET peptide cleavage efficiency with MMP-2.

A further experiment concerns the target T3, MMP-7 (Homo sapiens, UniProt P09237).
T3 construct: purchased SIGMA CC1059
T3 sequence (P09237 95-267): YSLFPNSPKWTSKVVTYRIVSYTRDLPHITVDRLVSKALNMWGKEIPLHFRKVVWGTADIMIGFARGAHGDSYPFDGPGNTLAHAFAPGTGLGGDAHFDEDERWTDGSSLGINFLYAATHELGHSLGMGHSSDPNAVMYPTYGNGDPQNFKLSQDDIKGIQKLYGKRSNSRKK
As to the kind of experiment: FRET peptide cleavage efficiency with MMP-7 (standard pH 7.5; also pH 6.5).

The next experiment addresses uPA (Homo sapiens, UniProt P00749). In words: FRET peptide cleavage efficiency with uPA.
For another experiment, the target named is T4, matriptase (Homo sapiens, UniProt Q9Y5Y6).
T4 construct: purchased R&D Systems 3946-SEB
T4 sequence (Q9Y5Y6 615-855 limits assumed): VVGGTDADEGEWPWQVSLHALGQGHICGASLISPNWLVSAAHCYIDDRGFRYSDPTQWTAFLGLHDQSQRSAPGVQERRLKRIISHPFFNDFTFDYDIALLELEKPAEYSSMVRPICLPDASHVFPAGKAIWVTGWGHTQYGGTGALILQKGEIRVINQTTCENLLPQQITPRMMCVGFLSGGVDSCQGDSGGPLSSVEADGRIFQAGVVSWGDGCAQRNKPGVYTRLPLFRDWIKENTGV
In words: FRET peptide cleavage efficiency with matriptase.

The mark [1] stands for this setting: 200 uM linker, 1 ug/ml protease, 37° C., buffer A pH 8.5.
Where [2] appears, read: 200 uM linker, 1 ug/ml protease, 37° C., buffer B pH 9.0.
Setting [3] is: t = 15 min, standard conditions (Table 8).
The mark [4] stands for this setting: t = 60 min, standard conditions (Table 8).
Setting [5] is: t = 120 min, standard conditions (Table 8).

Square brackets hold non-standard residues; d marks the D form. Ends that are not written are not given here. Tyr(3-NO2) = N[C@@H](Cc1ccc(O)c([N+](=O)[O-])c1)C(=O)O; 2Abz = Nc1ccccc1C(=O)O

T1 sequence (P14780 94-707): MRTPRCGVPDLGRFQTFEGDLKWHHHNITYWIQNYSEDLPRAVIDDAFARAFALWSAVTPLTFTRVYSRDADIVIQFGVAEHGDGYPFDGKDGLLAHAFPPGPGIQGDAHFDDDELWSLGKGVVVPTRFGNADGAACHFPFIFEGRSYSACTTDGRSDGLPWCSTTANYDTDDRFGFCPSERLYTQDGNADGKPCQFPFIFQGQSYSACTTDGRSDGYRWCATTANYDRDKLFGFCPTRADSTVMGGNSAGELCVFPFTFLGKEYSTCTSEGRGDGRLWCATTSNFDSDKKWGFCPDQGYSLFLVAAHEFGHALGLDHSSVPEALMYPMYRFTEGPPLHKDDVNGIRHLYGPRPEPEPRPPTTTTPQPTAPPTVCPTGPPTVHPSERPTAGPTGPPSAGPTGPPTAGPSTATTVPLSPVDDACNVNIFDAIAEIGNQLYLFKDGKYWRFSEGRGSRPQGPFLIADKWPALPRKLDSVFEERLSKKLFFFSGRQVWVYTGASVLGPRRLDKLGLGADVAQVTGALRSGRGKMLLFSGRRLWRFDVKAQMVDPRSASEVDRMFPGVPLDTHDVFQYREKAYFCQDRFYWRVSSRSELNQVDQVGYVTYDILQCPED

As to “RGRRVANYFGKL ([2Abz]RGRRVANYFGKL[Tyr(3-NO2)]-NH2) [LNK055]”, in the experiment with MMP-9 (t = 15 min (Table 9)), the “% cleavage MMP-9 t = 15 min” value is listed as 35%. The “% cleavage MMP-9 t = 60 min” value with MMP-9 (t = 60 min (Table 9)) is on record as 81%. In addition, the “% cleavage MMP-9 t = 120 min” value with MMP-9 (t = 120 min (Table 9)) amounted to 100%. Also, the “% cleavage MMP-2 t = 15 min” value in the experiment with MMP-2 (t = 15 min (Table 9)) is reported as 85%. The “% cleavage MMP-2 t = 15 min” value with MMP-2 (t = 15 min, 200 uM linker, 1 ug/ml protease, 37° C., buffer C pH 7.5) is given as 85%. The “% cleavage MMP-2 t = 60 min” value in the experiment with MMP-2 (t = 60 min (Table 9)) is recorded as 100%. In addition, the “% cleavage MMP-2 t = 60 min” value in the experiment with MMP-2 (t = 60 min, 200 uM linker, 1 ug/ml protease, 37° C., buffer C pH 7.5) amounted to 100%. Moreover, the “% cleavage MMP-2 t = 120 min” value with MMP-2 (t = 120 min (Table 9)) turned out to be 100%. For the same sequence, the “% cleavage MMP-2 t = 120 min” value with MMP-2 (t = 120 min, 200 uM linker, 1 ug/ml protease, 37° C., buffer C pH 7.5) is recorded as 100%. Besides, in the experiment with MMP-7 (t = 15 min (Table 9)), the “% cleavage MMP-7 t = 15 min” value was 0%. Moreover, the “% cleavage MMP-7 t = 60 min” value with MMP-7 (t = 60 min (Table 9)) is on record as 0%. Also, the “% cleavage MMP-7 t = 120 min” value in the experiment with MMP-7 (t = 120 min (Table 9)) was 0%. Further, the “% cleavage uPA t = 15 min” value with uPA (t = 15 min, 200 uM linker, 1 ug/ml protease, 37° C., buffer A pH 8.5) is recorded as 2%. Also, in the experiment with uPA (setting [1]), the “% cleavage uPA t = 60 min” value was 4% and the “% cleavage uPA t = 120 min” value is 8%. In the experiment with matriptase (setting [2]), the “% cleavage Matriptase t = 15 min” value is 67%, the “% cleavage Matriptase t = 60 min” value worked out at 100% and the “% cleavage Matriptase t = 120 min” value worked out at 100%.
Take “RQRKVANLVG ([2Abz]RQRKVANLVG[Tyr(3-NO2)]-NH2) [LNK032]”: the “% cleavage MMP-9 t = 15 min” value with MMP-9 (t = 15 min (Table 9)) and with MMP-9 (setting [3]) was 53% throughout. Also, the “% cleavage MMP-9 t = 60 min” value in the experiment with MMP-9 (t = 60 min (Table 9)) and with MMP-9 (setting [4]) was 100% throughout. The “% cleavage MMP-9 t = 120 min” value with MMP-9 (t = 120 min (Table 9)) and with MMP-9 (setting [5]) was 100% each time. For the same sequence, the “% cleavage MMP-2 t = 15 min” value with MMP-2 (t = 15 min (Table 9)) is 81%. Besides, the “% cleavage MMP-2 t = 60 min” value with MMP-2 (t = 60 min (Table 9)) and with MMP-2 (setting [4]) was 100% each time. Further, the “% cleavage MMP-2 t = 120 min” value with MMP-2 (t = 120 min (Table 9)) and with MMP-2 (setting [5]) was 100% each time. Also, the “% cleavage MMP-7 t = 15 min” value in the experiment with MMP-7 (t = 15 min (Table 9)) and with MMP-7 (setting [3]) was 20% each time. Besides, the “% cleavage MMP-7 t = 60 min” value in the experiment with MMP-7 (t = 60 min (Table 9)) and with MMP-7 (setting [4]) was 72% in each case. For the same sequence, the “% cleavage MMP-7 t = 120 min” value in the experiment with MMP-7 (t = 120 min (Table 9)) and with MMP-7 (setting [5]) was 95% throughout. In addition, the “% vcleavage uPA t = 15 min” value with uPA (setting [3]) amounted to 0%. Moreover, in the experiment with uPA (standard conditions (Table 8)), the “% cleavage uPA t = 60 min” value is reported as 0%. Further, the “% cleavage uPA t = 120 min” value in the experiment with uPA (standard conditions (Table 8)) worked out at 0%. Besides, the “% cleavage Matriptase t = 15 min” value with matriptase (standard conditions (Table 8)) turned out to be 81%. In the experiment with matriptase (standard conditions (Table 8)), the “% cleavage Matriptase t = 60 min” value was found to be 100%. Further, in the experiment with matriptase (standard conditions (Table 8)), the “% cleavage Matriptase t = 120 min” value is on record as 100%.
